Experimental data as given in patent CN107417789A (INST RES BIOMEDICINE, dated 2017).

Biological target: T1, X-31 (H3N2) 菠萝蛋白酶释放的HA (BHA) (influenza A virus X-31 (H3N2), UniProt P03437 17-344; P03437 346-520)
T1 construct: domain: 菠萝蛋白酶释放的HA (BHA)
Test: complex formation and size exclusion chromatography

B1: FI6变体3 Fab片段 (Fab, V domains shown)
VH: QVQLVESGGGVVQPGRSLRLSCAASGFTFSTYAMHWVRQAPGKGLEWVAVISYDANYKYYADSVKGRFTISRDNSKNTLYLQMNSLRAEDTAVYYCAKDSQLRSLLYFEWLSQGYFDYWGQGTLVTVSS
VL: not shown
Question: Does B1 bind?
Answer: Result: binds
